# Data as given in the supplement of paper PMC10126150.
# ± gives the standard deviation of the averaged measurements.
# Tested on: ATP
# Assay: switch fluorescence ratio, 500 uM ATP over buffer (Cy3 cluster intensity, sum of 5 cycles each) (fold (ratio)); higher = stronger signal-on switching upon ATP binding; sequences stand for … in TCGTCGGCAGCGTCAGATGTGTATAAGAGACAGTTTTTTTTTTTTTTTTTTTTTTTTT…TC
# Settings: aptamer strand: ATP DNA aptamer (quencher-CACCTGGGGGAGTATTGCGGAGGAAGG + anchor), 100 nM annealed; ATP concentration: 500 uM
# How it was run: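 Per cluster, summed Cy3 intensity from the target cycles was divided by that from the buffer cycles to give the fluorescence ratio, then averaged per switch-domain sequence. Clusters outside 100-1000 RFU were excluded. The Cy3-labelled switching-strand clusters, on a modified Illumina MiSeq flow-cell, were annealed to 100 nM quencher-labelled ATP aptamer and imaged in selection buffer, then after 15 min with 500 uM ATP at 22 °C, for five cycles with NaOH stripping and re-annealing between them.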
# 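Further: ATP exposure 15 min at 22 °C before imaging.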
row,Sequence,switch fluorescence ratio
1,GGGGGTTCGG,0.992 ± 0.021
2,GGGGGTTGTA,0.978 ± 0.054
3,GGGGGTTTGT,0.983 ± 0.011
4,GGGGTAAGAT,0.963 ± 0.054
5,GGGGTACGTG,1 ± 0.029
6,GGGGTACTTG,1.01 ± 0.02
7,GGGGTAGAGG,0.977 ± 0.015
8,GGGGTAGATC,1.05 ± 0.013
9,GGGGTAGGCC,0.995 ± 0.018
10,GGGGTAGGGG,1.01 ± 0.026
11,GGGGTAGTGC,0.998 ± 0.015
12,GGGGTATACC,0.956 ± 0.021
13,GGGGTATAGT,0.98 ± 0.021
14,GGGGTATCGG,0.9828 ± 0.0085
15,GGGGTATTCT,1.01 ± 0.013
16,GGGGTCAGAT,0.986 ± 0.051
17,GGGGTCATGT,1.03 ± 0.015
18,GGGGTCATTG,0.988 ± 0.023
19,GGGGTCGTTG,0.995 ± 0.017
20,GGGGTCTAGT,1.01 ± 0.026
21,GGGGTCTTCC,1.07 ± 0.041
22,GGGGTGAAGG,1.01 ± 0.025
23,GGGGTGAAGT,1.04 ± 0.017
24,GGGGTGACTG,1.05 ± 0.048
25,GGGGTGCAGC,1.05 ± 0.02

row,Sequence,switch fluorescence ratio
1,GGGGTGCAGT,0.992 ± 0.022
2,GGGGTGCCCA,0.984 ± 0.044
3,GGGGTGCCTG,0.999 ± 0.039
4,GGGGTGGAGC,1.05 ± 0.014
5,GGGGTGGATG,0.997 ± 0.018
6,GGGGTGGCAG,0.975 ± 0.027
7,GGGGTGGCGA,1.01 ± 0.045
8,GGGGTGGGCA,1 ± 0.011
9,GGGGTGGGGT,1 ± 0.052
10,GGGGTGTAAG,0.992 ± 0.02
11,GGGGTGTAGT,0.9854 ± 0.0053
12,GGGGTGTCTG,0.9792 ± 0.0074
13,GGGGTGTGGC,0.977 ± 0.046
14,GGGGTGTTAT,0.955 ± 0.037
15,GGGGTGTTTT,0.999 ± 0.048
16,GGGGTTAACG,0.996 ± 0.031
17,GGGGTTAAGA,1.01 ± 0.08
18,GGGGTTAATG,0.998 ± 0.028
19,GGGGTTAATT,1 ± 0.026
20,GGGGTTAGTG,0.971 ± 0.034
21,GGGGTTCATG,0.9675 ± 0.006
22,GGGGTTCGAA,0.963 ± 0.016
23,GGGGTTGATG,0.965 ± 0.022
24,GGGGTTGGTG,0.989 ± 0.02
25,GGGGTTGTTT,1.03 ± 0.08

row,Sequence,switch fluorescence ratio
1,GGGGTTTAAG,0.969 ± 0.025
2,GGGGTTTACG,1 ± 0.039
3,GGGGTTTAGG,0.989 ± 0.026
4,GGGGTTTCAG,1.02 ± 0.012
5,GGGGTTTGCA,0.978 ± 0.046
6,GGGGTTTTGC,0.985 ± 0.017
7,GGGGTTTTTC,0.9786 ± 0.0085
8,GGGTAAAACT,1.0166 ± 0.00025
9,GGGTAAAGTG,0.9928 ± 0.0032
10,GGGTAAATAT,0.98 ± 0.014
11,GGGTAAATGG,1.02 ± 0.034
12,GGGTAAATGT,0.9908 ± 0.0024
13,GGGTAAGGAC,1.03 ± 0.014
14,GGGTAATAAG,0.993 ± 0.035
15,GGGTAATCTT,0.991 ± 0.028
16,GGGTACAGGG,1 ± 0.02
17,GGGTACATTT,0.987 ± 0.016
18,GGGTACGAG,1.018 ± 0.01
19,GGGTACGCAG,1.01 ± 0.029
20,GGGTACGCGA,1.222 ± 0.0097
21,GGGTACGGGG,1 ± 0.03
22,GGGTACTGGT,1 ± 0.026
23,GGGTACTTGT,0.999 ± 0.022
24,GGGTAGGGAT,1 ± 0.032
25,GGGTAGGGCG,1.03 ± 0.14

row,Sequence,switch fluorescence ratio
1,GGGTAGTCCG,0.9937 ± 0.007
2,GGGTAGTTTT,0.989 ± 0.018
3,GGGTATAACA,1.004 ± 0.0083
4,GGGTATAAGG,0.989 ± 0.026
5,GGGTATAGCC,0.9807 ± 0.0066
6,GGGTATCA,0.954 ± 0.021
7,GGGTATCACT,0.992 ± 0.016
8,GGGTATCGTT,0.965 ± 0.027
9,GGGTATGCCC,0.9949 ± 0.0027
10,GGGTATGCGT,0.975 ± 0.026
11,GGGTATGTTT,0.981 ± 0.03
12,GGGTATTACG,0.975 ± 0.023
13,GGGTATTTAG,0.983 ± 0.033
14,GGGTCAAGGG,0.979 ± 0.019
15,GGGTCAGGAT,0.968 ± 0.019
16,GGGTCAGGGA,1.01 ± 0.065
17,GGGTCAGTGT,0.952 ± 0.018
18,GGGTCATGAT,1.01 ± 0.021
19,GGGTCCTGGC,0.985 ± 0.037
20,GGGTCCTTTT,1 ± 0.021
21,GGGTCGAGGG,0.986 ± 0.027
22,GGGTCGCGCC,1.01 ± 0.046
23,GGGTCGCGGG,0.9946 ± 0.0024
24,GGGTCGGCAC,0.968 ± 0.035
25,GGGTCGGGTG,1.03 ± 0.042

row,Sequence,switch fluorescence ratio
1,GGGTCGTAGC,1.01 ± 0.037
2,GGGTCTACA,0.9714 ± 0.0025
3,GGGTCTCATT,0.981 ± 0.022
4,GGGTCTGTGG,0.9812 ± 0.0062
5,GGGTCTTGAC,0.9858 ± 0.0045
6,GGGTCTTGAT,0.9675 ± 0.0047
7,GGGTCTTTGA,1.03 ± 0.041
8,GGGTGAAGGA,0.989 ± 0.042
9,GGGTGACCAC,0.986 ± 0.0044
10,GGGTGACTTA,0.978 ± 0.04
11,GGGTGAGATT,1.02 ± 0.015
12,GGGTGAGTCG,1.02 ± 0.037
13,GGGTGAGTGG,1.01 ± 0.021
14,GGGTGATAGA,1.01 ± 0.039
15,GGGTGCACAC,1.09 ± 0.095
16,GGGTGCAGGG,0.9932 ± 0.0059
17,GGGTGCATCG,1.004 ± 0.0046
18,GGGTGCATTG,1.03 ± 0.021
19,GGGTGCGCGA,1.04 ± 0.041
20,GGGTGCGGCA,0.998 ± 0.019
21,GGGTGCGGTT,1.011 ± 0.01
22,GGGTGCTCGG,1 ± 0.019
23,GGGTGCTGCG,1.01 ± 0.037
24,GGGTGCTGTT,1.02 ± 0.036
25,GGGTGGCAGG,1.01 ± 0.013

row,Sequence,switch fluorescence ratio
1,GGGTGGCCAA,0.981 ± 0.012
2,GGGTGGGCCC,0.995 ± 0.041
3,GGGTGGGCCT,0.989 ± 0.042
4,GGGTGGGGGA,1.03 ± 0.028
5,GGGTGGGGTG,1 ± 0.018
6,GGGTGGGTAT,1 ± 0.027
7,GGGTGGTCGG,0.978 ± 0.032
8,GGGTGTAGGA,1.03 ± 0.065
9,GGGTGTATTG,1.01 ± 0.044
10,GGGTGTGAGA,1.04 ± 0.03
11,GGGTGTTGTA,1 ± 0.055
12,GGGTTAAAGT,0.994 ± 0.022
13,GGGTTAAATG,0.989 ± 0.028
14,GGGTTAAGAG,1.01 ± 0.02
15,GGGTTAATGA,1 ± 0.048
16,GGGTTAATGT,1.01 ± 0.061
17,GGGTTACTGG,1.002 ± 0.0021
18,GGGTTAGACG,1.01 ± 0.011
19,GGGTTAGAGT,0.993 ± 0.025
20,GGGTTAGATT,0.993 ± 0.06
21,GGGTTATAGT,1.01 ± 0.017
22,GGGTTATCAC,0.984 ± 0.0095
23,GGGTTATGAG,0.977 ± 0.06
24,GGGTTATGGG,1.005 ± 0.008
25,GGGTTATTGT,1 ± 0.016

row,Sequence,switch fluorescence ratio
1,GGGTTCAAAC,1 ± 0.039
2,GGGTTCAATC,1.04 ± 0.014
3,GGGTTCAGGC,1.05 ± 0.059
4,GGGTTCCGGG,1.02 ± 0.021
5,GGGTTCGTTC,0.989 ± 0.054
6,GGGTTCTAGG,0.999 ± 0.043
7,GGGTTGAAGA,0.971 ± 0.04
8,GGGTTGAATA,0.953 ± 0.056
9,GGGTTGCCAG,0.997 ± 0.025
10,GGGTTGCCGT,0.977 ± 0.036
11,GGGTTGGAAG,1.02 ± 0.067
12,GGGTTGGATT,0.991 ± 0.023
13,GGGTTGGCTC,0.994 ± 0.041
14,GGGTTGGGAC,1.01 ± 0.051
15,GGGTTGGGTG,1.01 ± 0.042
16,GGGTTGGTGT,0.978 ± 0.015
17,GGGTTGGTTG,0.9929 ± 0.0052
18,GGGTTGTGCT,0.953 ± 0.015
19,GGGTTGTTTG,0.992 ± 0.036
20,GGGTTTAAGG,1.02 ± 0.015
21,GGGTTTACAA,0.989 ± 0.029
22,GGGTTTACGG,1.02 ± 0.017
23,GGGTTTACTT,0.99844 ± 0.00094
24,GGGTTTATGT,0.984 ± 0.029
25,GGGTTTATTG,0.998 ± 0.049

row,Sequence,switch fluorescence ratio
1,GGGTTTCGAC,1.02 ± 0.013
2,GGGTTTCGCG,1.01 ± 0.023
3,GGGTTTCGGG,0.9779 ± 0.0092
4,GGGTTTGAAA,1.01 ± 0.067
5,GGGTTTGGGC,1.01 ± 0.024
6,GGGTTTGTGG,0.984 ± 0.023
7,GGGTTTTCCA,1.01 ± 0.021
8,GGGTTTTGGC,1 ± 0.066
9,GGGTTTTTAT,0.989 ± 0.027
10,GGGTTTTTGC,1.04 ± 0.045
11,GGGTTTTTTA,0.988 ± 0.022
12,GGGTTTTTTC,0.9798 ± 0.0046
13,GGTAAACAAA,1.026 ± 0.0079
14,GGTAAATTGA,1.04 ± 0.03
15,GGTAACATCG,1.003 ± 0.0066
16,GGTAACGTGA,1.01 ± 0.023
17,GGTAAGTCTA,0.9832 ± 0.0059
18,GGTAATATAC,1.057 ± 0.0076
19,GGTAATGCGG,1.01 ± 0.041
20,GGTAATTTTG,0.996 ± 0.061
21,GGTACAAGAT,1.03 ± 0.013
22,GGTACACACA,1.26 ± 0.061
23,GGTACCAAAA,0.992 ± 0.024
24,GGTACGCG,0.982 ± 0.027
25,GGTACGGAGA,1.02 ± 0.011
